Tests used:
Test in all cases: purified protein
Format in all cases: biochemical, Danio rerio
[1] = test system: C[C@H](CCC(=O)O)[C@H]1CC[C@H]2[C@@H]3[C@H](O)C[C@@H]4C[C@H](O)CC[C@]4(C)[C@H]3CC[C@]12C; settings: 14 μM PAP[35S], 50 mM Taps pH 8.5, 28 °C, pH 8.5
[2] = test system: C[C@H](CCCO)[C@H]1CC[C@H]2[C@@H]3[C@H](O)C[C@H]4C[C@H](O)CC[C@]4(C)[C@H]3C[C@H](O)[C@]12C; settings: 14 μM PAP[35S], 50 mM Mes pH 6.0, 28 °C, pH 6.0
[3] = test system: C[C@H](CCC(=O)O)[C@H]1CC[C@H]2[C@@H]3CC[C@@H]4C[C@H](O)CC[C@]4(C)[C@H]3CC[C@]12C; settings: 14 μM PAP[35S], 50 mM Taps pH 8.5, 28 °C, pH 8.5
[4] = test system: C[C@H](CCC(=O)NCC(=O)O)[C@H]1CC[C@H]2[C@@H]3[C@H](O)C[C@@H]4C[C@H](O)CC[C@]4(C)[C@H]3CC[C@]12C; settings: 14 μM PAP[35S], 50 mM Taps pH 8.5, 28 °C, pH 8.5

Substance: Zebra danio SULT3 ST2 (ZF SULT3 ST2) (Danio rerio)
- Km [1]: 21.75 ± 2.74 µM
- Vmax [1]: 0.00075 µmol/min/mg
- Km [2]: 22.36 ± 1.47 µM
- Vmax [2]: 0.00254 µmol/min/mg
- Km [3]: 6.00 ± 0.55 µM
- Vmax [3]: 0.00051 µmol/min/mg
- Km [4]: 19.89 ± 1.32 µM
- Vmax [4]: 0.00097 µmol/min/mg
